Assay: soluble fraction after stress (log2 fold change); higher = more stays soluble; pooled small domains, quantitative proteomics
Conditions: stress: 75 degC
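Also: 20 min heating vs room temperature control held 20 min.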

| Sequence | soluble fraction (log2) |
| --- | --- |
| HMASVDDILDRFKQAAKVTTDADLAKVLGLSRQSIAAARLRAKIPASWFPKMSSLFNISTEWLYRG | -1.18 |
| HMASVRPVAPPDPKTHTRLTYRIRRGDTLERIGRRYRVSIAEIQAWNTLRDPGDILAGQRLVIWIPTS | -2.33 |
| HMATAPQIRAIYALGSKLGINQNSREDNLHQLVYSITGKESIKGLTNYEAARVQSELANMERK | 0.323 |
| HMATEPLQPRVEVLGSTLATTNGARIVGVYDMSGREVSATQLSKGVYIVKVTNGSVTATQKVFI | -0.477 |
| HMATETMGMIIRRLRREHGLTQEELAASIGVTAQAVSKWEKDLGMPDISQIVPLAGAFNVRTDVLFGLE | -2.65 |
| HMATEWLSSKEAAQRLGVSAATLYAYVSRGLLRSEGSSGQRERRYRADDVAQLRRRREVGRKAESIAASTL | -1.31 |
| HMATHWHITPNPNNGKFLISGLMQDDSFHLMDASGQWLRQLRTVNQELDLDLQPGVYFLKDNSGSVMKFVV | -1.13 |
| HMATIADILAEHKDKEGPLLPVLHDVQKMFGHVSEEAMREIAQALNLTRAEVYGVVSFYHDFRKEVE | -1.46 |
| HMATIIGSIGIVTQKVGLTGVPGRVYVNNESWAAISANGKEIENDTQVIVVKIDGATLIIEKKG | -2.22 |
| HMATKEQIKRIYGLGAGLGIVGKDKDDMLHELIFSITGKDSVKQLDDSEFKAVQAELINRMKLA | 0.0958 |
| HMATLAVPNLMRLSQGEAMALIRLSGLSIGNVSIDSSMGSPRVIRQEPQASGGMLVLTQGDQVHLWLEGP | -3.75 |
| HMATLQLPVPKITLYPGELIRSDHLTDQRFNARALYHSAVYKSREDIVGKVARRTLLPGQPIPVNALR | -1.07 |
| HMATPKRGFRKQLAPLVQSGTITREEAGELSRSSGDATALRTKIGELMKAGKLTRKEAGELYSDAFPENA | 0.145 |
| HMATPYISMAGIGKSFGPVHALKSVNLTVYPGEIHALLGENGAGKSTLMKVLSGIHEPTKGTITINNIN | 0.458 |
| HMATRAEQMAKTHQAILDTARELFLRNGYDATSTRDIANAIGITQPALYHHFKDKEVIFLAVI | -0.107 |
| HMATSLTEQEKLIFGLLKKQSPIELSSLKEQAGLSNKKWDKAIKGLSTQQLAKVTKTENGLFVHLLQ | 0.00913 |
| HMATTAGIEKYLGSGLIKGIGPIYAKKIVRKFKEDTIRIIDEEPDRLLEVEGIGQKRLEIIKQAWQQQKE | -0.651 |
| HMATVHVDGIQYDFSSPEQAKEFAYKWAKKHNLTWEVHGETIHIK | -0.225 |
| HMATYNEVLKRLIEERKRLGLSQQEMARLVHITQSNYSKVEKGLHRLSYEELKYLSKANVDIFYILT | -0.0786 |
| HMAVANEAIANINMKEVKQAIHNLPEIFKNPFLLYFDGYKYHEIAEMLDEPLGTIKSRIHFARKLLKSHI | -0.889 |
| HMAVDVNKATAAELDSIKGIGPAISAKILEEKKKGGNFKDWNDLVTRVSGVGEANAAKFSSEGLTVGGAS | 0.0168 |
| HMAVELPLETTLDIVRKYARNQEVDRRAERVEAVSAEALQTLAPRGTKLASEIVEQAKTQVLEELA | 0.476 |
| HMAVKYTKDDFLYTEKPYEAIYDYKNDPFMHNLKIEQMAQQAAEVGVKTFKGLYKNYVKMREMQRGANV | 0.0263 |
| HMAVNSALVQRNWLIGYRIAEEELQGDNRAEYGASIIKKLAKELTAEYGKGYTKTNLYHFYSFYKT | -0.0399 |
| HMAVNVNGIHLSSQQHEALVSIWRTGRMPEPHAGQKPWLWIQALRRRGLVSGNALRLTDKGRHIVQLLQ | -0.288 |
| HMAVPAALVQAWLELSRRMVAGTQDVGERFAEEARKMHYGETEDRGIRGQATLTEVRDLLDEGIEVLPLLL | -0.439 |
| HMAVPLVRGTVTSSVGTVLLLSVGERDFFLSEGEEKDGVLLQSLSEKSAVVVVSGRAYTLSL | -4.42 |
| HMAVRLADMAAEKIRKMIIENKFDAGEPLSEMRLAEMFNVSRTPIREAIAILEQEGLLTTVHGKGAFIS | -0.896 |

| Sequence | soluble fraction (log2) |
| --- | --- |
| HMAVSDAAEEYGKAGTPLVILAGKEYGSGSSRDWAAKGPYLQGVRAVLAESYERIHRSNLVGMGIVPLTYK | 0.18 |
| HMAVSDPTAGGIKALMYPNPAQDRLSVALDIPAGLDKQAQMTVTDMMGRVVTQQQVTLNDGFQVFEL | 0.268 |
| HMAVSSYSVKRYIRNMIQAEDPSAPFSDEALRLALLAHGIAVSRRVVTKYRMAMDIPSSSQRRKR | -1.41 |
| HMAVSTFGRITASSLNVRSGPSTDHEKVGSLAAGRVVELLEESDGWYRIENGYISTEYVTIVDPSQ | -0.715 |
| HMAVTEVKTTAVVNMRSSDSEKADKLGKAQIGDTFRVLEQRANGWTKLTDGTQEFFIKSEYLEAIA | 0.109 |
| HMAVVAPLAGSVARVLVADGDEIEAGQVLLVLEAMKMETEITAPKAGKVGAILVGKGDSVQGGQGLR | -0.18 |
| HMAYLTGFHAIEELIRAGKAKGPLLVANAGPRARTIMSLATDNKIRIDRLGEHELNRLAPGNRGIALYVE | -0.898 |
| HMDAAYVYVIGTRVNQRAGPSTSNAVMGVLSEGTRVETLRDEGQWTQIRSNFGTGWMSSSFLSSVAP | -1.28 |
| HMDADRILHKTLKPRELEIYQLIKAYLEEHSQIANAKVQEISGLSEATTRRYLNIFVEFGLLKTS | -0.214 |
| HMDADTVGQIRVVKQILDDGRLIVVDASGNPVLVRRSSALSLTAISQGDRIIVDPSVRLAIELLPNE | -0.637 |
| HMDAEELNSKAKDEFTWLEDDESETNLEYRKMVSSEDMAIVAKVAPALAAKLKYQLAHAATNMV | 0.149 |
| HMDAEVEHLFRIIAELKEKNVAIIYISHKMDEIFRISDDITVYRDGEYIATDRAENLNVDKVIQLMVGREV | -0.429 |
| HMDAEWRTLTLAPEQHQQRLDRALADSLPEFSRSYVQQLIDTGMVRVNGVLAAKSAQRVKALDQVQVELR | -0.411 |
| HMDAGIVVPDTYNKPLAEAVASLEGEGFRTEKKEGYSDTVAKGNVMSQNPEAGTNAERGSTVTIVISQGPQ | 0.455 |
| HMDAINYEDFQLLIKQRGSFKVAFEDIMFSTKVAIEKKEDFYDFVTKLIDNGFNNMAYNYLEGFQD | -2.07 |
| HMDAISYTQFMEEAKQGRINKVEVQGRTLMVTPTDGKAYSLTSPGDLWMTTDLMKYGVNVYGAE | 0.0525 |
| HMDALKAVYQWVTRTMMKNQTGVMQTLPNRDLIELNTQITAQRLMQAGVDPTTLKNANQVENAVNIIESR | -0.69 |
| HMDAMGAVGIARAFISAGERGGDISDGLEHMHGKLLRLSSLMYTRSGKKMAARRHELLSSFVQALEEEIK | -0.327 |
| HMDAMQAFPNPTVDEIHFVTPTTGRVYNAHGQLVMVLKNAQLVNVRQWSAGQYVIVREDGYAVRWIK | -1.3 |
| HMDAPQRVTYLLPHSRGEVVSWLHRQGEVVAQEYEAEGVRVVVDLRYAQIRQAAKQFDVLPAEG | -1.24 |
| HMDAPRFAAGDAVRVAGLVSKPQHNGRAGSVLSYDPVSLRYIVKVDGEDEPLKLKPENVLMPA | 0.11 |
| HMDAQLRVPDLTPYNYSELKENTSLYEGFTIEVVEERSTGDYAAGTVLDQDPKADTLIQDGDSTVIKLVIA | 0.151 |
| HMDASFTYSLETHPAGVLVRVDGLEYETPFSILLPQGVHRLEVAGEERFFYLSETTHQFLEID | -2.9 |
| HMDATGDPIADRILQALQLGELTRTQVNNVFQRHLAAARISQALNFLRSLKRADMRMEETAGRSGEVWFAI | -0.454 |
| HMDAVKKKVQSTNTLLDVLKQMLPQTSSNTLRKMLTNQRITVDGETIHRAKHTVEKDQTVEIHPKP | 0.215 |
| HMDAVSYTQFMQDAKAGRIKKVIVHQSGILDVTTTEGRRFNLTSPGDLWMVGDLVKDGVDVVGAP | -0.234 |
| HMDAVTYAKGSSGETVREIQQLLLDWGYYSGEVDGIFGSRTEDAVEYFQRKNGLTVDGKVGPATLEALGIS | -0.0808 |

Source: the domain aggregation screens of Martell et al. (2025)
